Data reported in the supplement of paper PMC10724198.
± gives the standard deviation of the averaged measurements.

Tested on: Saccharomyces cerevisiae
Test: protein stability index of tFT-peptide fusion (C-terminal peptide) (PSI (0-1 scale)); higher = more stable (slower turnover)
Conditions: temperature: 30 C
Experimental: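 MPS profiling in S. cerevisiae of the yeast C-terminome library: the last 12 aa of each annotated ORF are fused to the C-terminus of a sfGFP-mCherry timer, after a GGGS linker. Cells are FACS-sorted into 8 mCherry/sfGFP bins and deep-sequenced. PSI runs from 0 (unstable) to 1 (stable); wild type and das1Δ backgrounds, two technical replicates each.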

[1] = genetic background: das1 deletion

Sequence | protein stability index [1] | protein stability index (genetic background: wild type)
ELKKRFDALRRK [IST1 C-terminal 12 aa] | 0.686 ± 0.015 | 0.647 ± 0.0071
IWLVYKLYCFIF [CST26 C-terminal 12 aa] | 0.3724 ± 0.0025 | 0.3155 ± 0.0014
GELFQIVSNQSS [STE6 C-terminal 12 aa] | 0.702 ± 0.017 | 0.679 ± 0.0082
TGWPTGLRHQHT [YER133W-A C-terminal 12 aa] | 0.7212 ± 0.0034 | 0.695 ± 0.011
DDKFRRSYDVKK [ERG13 C-terminal 12 aa] | 0.731 ± 0.026 | 0.753 ± 0.12
PIRTPDAKKPKI [BUR2 C-terminal 12 aa] | 0.715 ± 0.013 | 0.8 ± 0.13
QVPEEDFPVVNY [DNL4 C-terminal 12 aa] | 0.697 ± 0.009 | 0.718 ± 0.034
KKKANIPKAKSA [HUT1 C-terminal 12 aa] | 0.706 ± 0.0094 | 0.686 ± 0.013
CFWRMICSEPKL [YAR064W C-terminal 12 aa] | 0.736 ± 0.0093 | 0.623 ± 0.052
RVSRMRAKRKYQ [YOR300W C-terminal 12 aa] | 0.712 ± 0.034 | 0.6764 ± 0.0037
SRIYQTFTDPSN [ADY4 C-terminal 12 aa] | 0.729 ± 0.024 | 0.702 ± 0.061
QMVRDEGFEKNP [GPM3 C-terminal 12 aa] | 0.68 ± 0.038 | 0.644 ± 0.036
SSVVSRVSRSCR [YAR060C C-terminal 12 aa] | 0.7343 ± 0.0019 | 0.668 ± 0.043
KCEEVNDGLRWK [EHD3 C-terminal 12 aa] | 0.6964 ± 0.0049 | 0.711 ± 0.1
VKRNKYPPRPVH [REF2 C-terminal 12 aa] | 0.704 ± 0.023 | 0.74 ± 0.0081
NTSGQKPNEYNY [APA1 C-terminal 12 aa] | 0.7049 ± 0.0049 | 0.698 ± 0.018
AIMAVACNVIFS [AGA1 C-terminal 12 aa] | 0.292 ± 0.024 | 0.315 ± 0.005
ERWVRMGELMHY [YBR184W C-terminal 12 aa] | 0.686 ± 0.018 | 0.538 ± 0.058
QKLGIIGKNDLK [PSD1 C-terminal 12 aa] | 0.685 ± 0.029 | 0.709 ± 0.016
IPSIGKPKTIKI [BUD17 C-terminal 12 aa] | 0.672 ± 0.015 | 0.7017 ± 0.0033
LFCYCSCDSYES [YBL100C C-terminal 12 aa] | 0.646 ± 0.017 | 0.668 ± 0.031

Sequence | protein stability index [1] | protein stability index (genetic background: wild type)
KDNTVDIYDVNG [TGS1 C-terminal 12 aa] | 0.687 ± 0.023 | 0.682 ± 0.013
EIALRKSGAVGS [YMR008C-A C-terminal 12 aa] | 0.689 ± 0.008 | 0.6727 ± 0.0038
YEEGESIFGSLF [REV7 C-terminal 12 aa] | 0.71 ± 0.029 | 0.7145 ± 0.0024
FLIHTPKHPPPT [POG1 C-terminal 12 aa] | 0.698 ± 0.011 | 0.725 ± 0.021
KKKNKNKGKKKR [SRP21 C-terminal 12 aa] | 0.6857 ± 0.006 | 0.719 ± 0.048
VASLPSRYSRYD [ALR1 C-terminal 12 aa] | 0.711 ± 0.024 | 0.654 ± 0.013
DWVSHGGDKLDL [RDL1 C-terminal 12 aa] | 0.703 ± 0.042 | 0.704 ± 0.012
MQTHYILMKAQW [PPM1 C-terminal 12 aa] | 0.579 ± 0.008 | 0.5353 ± 0.0021
KLLGIFPNLSNF [YLL054C C-terminal 12 aa] | 0.70477 ± 0.00046 | 0.358 ± 0.0064
HDELKYPVDMVI [PDR17 C-terminal 12 aa] | 0.705 ± 0.022 | 0.757 ± 0.058
RAHITKQKKKGY [SDA1 C-terminal 12 aa] | 0.7317 ± 0.0043 | 0.6636 ± 0.0011
KKGLLHKLKKKL [IST2 C-terminal 12 aa] | 0.7257 ± 0.0041 | 0.668 ± 0.045
GSLLLYLLLKIL [INP54 C-terminal 12 aa] | 0.34 ± 0.018 | 0.119 ± 0.0017
YVKEAQSVVTSL [YIR043C C-terminal 12 aa] | 0.672 ± 0.013 | 0.659 ± 0.029
TYSEREGNLLNS [RPR2 C-terminal 12 aa] | 0.7159 ± 0.0046 | 0.675 ± 0.0073
LMQLLLGSLGLS [YKL145W-A C-terminal 12 aa] | 0.706 ± 0.0093 | 0.716 ± 0.031
VKYSRIIPPDIR [SUM1 C-terminal 12 aa] | 0.72 ± 0.017 | 0.69 ± 0.032
WRRSKSISTHLR [YLR366W C-terminal 12 aa] | 0.711 ± 0.0074 | 0.681 ± 0.034
SEEEEEEEWKGF [RRP1 C-terminal 12 aa] | 0.68 ± 0.011 | 0.673 ± 0.033
IRDAKFCDKHED [BOR1 C-terminal 12 aa] | 0.6971 ± 0.0014 | 0.671 ± 0.035
